Measured values taken from the supplement of paper PMC10126150.
± gives the standard deviation of the averaged measurements.

These sequences were tested on ATP (assay: switch fluorescence ratio, 500 uM ATP over buffer (Cy3 cluster intensity, sum of 5 cycles each) (fold (ratio)); higher = stronger signal-on switching upon ATP binding; sequences stand for … in TCGTCGGCAGCGTCAGATGTGTATAAGAGACAGTTTTTTTTTTTTTTTTTTTTTTTTT…TC). Conditions: aptamer strand: ATP DNA aptamer (quencher-CACCTGGGGGAGTATTGCGGAGGAAGG + anchor), 100 nM annealed; ATP concentration: 500 uM.
Method in brief: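 The quencher-labelled ATP aptamer, at 100 nM, was annealed to Cy3-labelled switching-strand clusters on a modified Illumina MiSeq flow-cell. The clusters were imaged in selection buffer, then after 15 min with 500 uM ATP at 22 °C, and this buffer/ATP cycle ran five times with NaOH stripping and re-annealing between runs. Per-cluster fluorescence ratios, summed target-cycle over summed buffer-cycle Cy3 intensity, were averaged per switch-domain sequence. Clusters outside 100-1000 RFU were excluded.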
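Note: ATP exposure 15 min at 22 °C before imaging.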

Sequence | switch fluorescence ratio
CGTAGATTTT | 1 ± 0.046
CGTAGCGTCC | 1.13 ± 0.019
CGTAGCTTTG | 1.086 ± 0.0028
CGTAGGAGG | 0.9784 ± 0.0044
CGTAGGTGCA | 1.05 ± 0.022
CGTAGGTTTT | 1 ± 0.067
CGTAGTGTAG | 1.02 ± 0.052
CGTAGTTGG | 0.988 ± 0.049
CGTATAAATC | 1.01 ± 0.043
CGTATACTGA | 1.01 ± 0.055
CGTATATGGC | 1.1 ± 0.14
CGTATCTCTA | 0.989 ± 0.01
CGTATGCCGG | 0.9999 ± 0.0091
CGTATGGCCA | 1.0198 ± 0.00072
CGTATTGAGA | 0.968 ± 0.057
CGTATTGCGT | 1.01 ± 0.025
CGTATTTATT | 1.01 ± 0.021
CGTATTTGAG | 1 ± 0.037
CGTATTTGGG | 0.999 ± 0.034
CGTATTTGTA | 1.01 ± 0.028
CGTATTTTTT | 1.01 ± 0.032
CGTCACGGGA | 1.05 ± 0.036

Sequence | switch fluorescence ratio
CGTCATATGC | 1.29 ± 0.073
CGTCATGCTC | 1.19 ± 0.036
CGTCCACAGG | 2.96 ± 0.092
CGTCGACCGG | 1 ± 0.022
CGTCGAGGGA | 1.1 ± 0.12
CGTCGCAGTG | 1.03 ± 0.052
CGTCGTATAA | 1.02 ± 0.021
CGTCGTGATA | 1.2 ± 0.014
CGTCTAATAG | 1.18 ± 0.03
CGTCTGAATG | 0.9983 ± 0.0024
CGTCTGGGCG | 0.957 ± 0.097
CGTCTGGTGC | 1.03 ± 0.029
CGTCTGTCGG | 1.03 ± 0.019
CGTCTTTTAT | 0.9935 ± 0.0043
CGTCTTTTGG | 1.02 ± 0.025
CGTGAAAGCG | 0.9683 ± 0.005
CGTGAAGGCG | 0.952 ± 0.024
CGTGAAGGGT | 0.992 ± 0.013
CGTGACGGTA | 1.042 ± 0.0014
CGTGAGAGTG | 0.9781 ± 0.0021
CGTGATGATT | 0.9809 ± 0.0078
CGTGATGGGG | 1.04 ± 0.071

Sequence | switch fluorescence ratio
CGTGATTTGG | 1.006 ± 0.0065
CGTGCAAATT | 0.985 ± 0.026
CGTGCACAAA | 0.9815 ± 0.0059
CGTGCCCGTG | 1 ± 0.017
CGTGCGGGTG | 1.03 ± 0.006
CGTGCGTGTA | 1.02 ± 0.053
CGTGCTCTAC | 1.5 ± 0.068
CGTGCTTTTC | 1.15 ± 0.22
CGTGGAACGA | 1.01 ± 0.058
CGTGGGAATT | 0.977 ± 0.019
CGTGGGAGAG | 0.983 ± 0.021
CGTGGGAGGC | 1.04 ± 0.077
CGTGGGGAGG | 1.05 ± 0.017
CGTGGGGCAC | 1.01 ± 0.024
CGTGGGGGT | 0.996 ± 0.035
CGTGGGGTTT | 0.989 ± 0.022
CGTGGGTGGT | 1.0181 ± 0.00048
CGTGGTAAGG | 0.989 ± 0.026
CGTGGTGGG | 0.968 ± 0.029
CGTGGTGGGA | 0.9737 ± 0.0088
CGTGGTTGTC | 0.9871 ± 0.0066
CGTGTAAGGG | 0.974 ± 0.04

Sequence | switch fluorescence ratio
CGTGTAATGT | 0.985 ± 0.048
CGTGTAATTT | 0.993 ± 0.016
CGTGTACTTA | 1.03 ± 0.01
CGTGTAGGAG | 0.99262 ± 0.00056
CGTGTAGGTT | 1.02 ± 0.021
CGTGTAGTTT | 1.01 ± 0.036
CGTGTATATA | 1.018 ± 0.0041
CGTGTATGG | 1.016 ± 0.0031
CGTGTATGTG | 0.969 ± 0.043
CGTGTATTCT | 0.968 ± 0.034
CGTGTCTTGA | 1.027 ± 0.0037
CGTGTGCCGA | 1.01 ± 0.057
CGTGTGGGGT | 1.01 ± 0.027
CGTGTGGTGG | 0.944 ± 0.032
CGTGTGGTGT | 1.03 ± 0.04
CGTGTTCTGG | 0.994 ± 0.031
CGTGTTGGTA | 0.987 ± 0.013
CGTGTTGTAC | 1.13 ± 0.024
CGTGTTTGCC | 1 ± 0.02
